Source: publication PMC11025326 (Journal of Bacteriology, 2024)

B1: 6xHisN-LapB^ΔTM (LapB^Δ1-22aa) (domain or fragment, S. Typhimurium, UniProt Q7CQG6 23-389, looked up)
chain: SAQQTKQDEANRLSRDYVAGVNFLLSNQQDKAVDLFLDMLKEDTGTVEAHLTLGNLFRSRGEVDRAIRIHQTLMESASLTYEQRLLAVQQLGRDYMAAGLYDRAEDMFNQLTDETEFRVGALQQLLQIYQLTSDWQKAIEVAERLVKLGKDKQRIEIAHFYCELALQQMGNDDMDRAMALLKKGAAADKNSARVSIMMGRVYMARGDYAKAVESLQRVIVQDKELVSETLEMLQTCYQQLGKNAEWAEFLRRAVEENTGAGAELMLADILEAREGSDAAQVYITRQLQRHPTMRVFHKLMDYHLNEAEEGRAKESLMVLRDMVGEQVRSKPRYRCQKCGFTAYTLYWHCPSCRAWSTIKPIRGLDGQ
notes: LPS assembly protein B (LapB/YciM), S. Typhimurium; transmembrane segment (residues 1-22) removed and replaced by an N-terminal polyhistidine tag; By calibrated gel filtration a homotrimer when alone, and two copies in the complex with one LpxC; also called 6xHisNLapB^Δ1-22; LapB cytosolic domain; source: E. coli BL21 (DE3), pACYC-Duet1, IPTG; in soluble lysate for the microscale co-purification; …
B2: LpxC^Δ293-305-S-Tag (enzyme)
chain: MIKQRTLKRIVQATGVGLHTGKKVTLTLRPAPANTGVIYRRTDLNPPVDFPADAKSVRDTMLCTCLVNEHDVRISTVEHLNAALAGLGIDNIVIEVNAPEIPIMDGSAAPFVYLLLDAGIDELNCAKKFVRIKETVRVEDGDKWAEFRPYNGFTLDFTIDFNHPAIDSSSQRYAMNFSADAFMRQISRARTFGFMRDIEYLQSRGLCLGGSFDCAIVVDDYRVLNEDGLRFEDEFVRHKMLDAIGDLFMCGHNIIGAFTAYKSGHALNNKLLQAVLAKQEAWEFVTFQDDAE
notes: not shown: S-tag, C-terminal, kept

How the values were obtained:
[1] = target: the molecule itself; assay: SEC; calibrated Superdex 200 Increase 10/300 GL; co-purified LapB^ΔTM-LpxC^Δ293-305 complex, 0.5 mg/mL; 20 mM HEPES, 300 mM NaCl, 10% glycerol, 1 mM DTT, pH 7.0
[2] = target: the molecule itself; assay: SEC; calibrated Superdex 200 Increase 10/300 GL; purified LapB^ΔTM alone, 0.5 mg/mL; 20 mM HEPES, 300 mM NaCl, 10% glycerol, 1 mM DTT, pH 7.0
[3] = target: B1; assay: SEC; conditions: both partners purified

Row | Binder | stoichiometry N [1] | stoichiometry N [2] | stoichiometry N [3] [LpxC per LapB chain]
1 | B1 | 2 | 3 | –
2 | B2 | – | – | 0.5
